53 proteins from the supplement of paper PMC10567573 can be followed below.

The data set can be described thus: protein stability index of a GFP-peptide fusion (GPS, HEK-293T) (PSI 1-6); higher = more stable.
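Also: lentivirally expressed fusions sorted by FACS into six bins by GFP to DsRed ratio, PSI derived from sequencing read proportions per bin multiplied by bin number.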

As for HTGERPYECTVCKKRFTRRSHLIG, the protein stability index (parent: IOH29221_63, c terminus: a fixed tail appended) was determined as 2.07.
Take LKASMRELGLLIFFLFIGVILFSS [KCNA1 WT]: where the note is “parent: IOH35854_54, c terminus: a fixed tail appended”, the protein stability index came to 2.1.
For the protein QLDKNSEVYQEVQAMFDTLGIPKS [FAM98B WT], the protein stability index (parent: IOH35542_24, c terminus: a fixed tail appended) came out at 3.16.
As for FQEYDTDCEVFRQRFRQFQYREAA, under “parent: IOH29221_4, c terminus: a fixed tail appended”, the protein stability index was 2.58.
In the case of TGTSNTTAIKSIEFARKGSCFLIN [RBBP5 WT], the protein stability index (parent: IOH28957_33, c terminus: a fixed tail appended) is 2.08.
PCAGSTSLSHSPGCSSTQGNGRPG: the protein stability index (parent: IOH28989_16, c terminus: a fixed tail appended) amounted to 3.04.
As to YSLELGKAIKQKLWEALCSQGAIS [C22orf31 WT], the protein stability index (parent: IOH35430_40, c terminus: a fixed tail appended) turned out to be 2.63.
Regarding YGLQGGMAFLDKRLQVKEHQHEEI, for the setting “parent: IOH37933_38, c terminus: a fixed tail appended”, the protein stability index was 2.62.
FSFRYQQELEEEIKELYENFCKHN: for the setting “parent: IOH37933_69, c terminus: a fixed tail appended”, the protein stability index was 2.5.
In the case of YKVKERLGTLKNPPKKKMKLMSG, where the note is “parent: IOH28989_68, c terminus: native”, the protein stability index is 1.99.
Turning to AIQGISEKEKAEIEAKEACDWLRA, the protein stability index (parent: IOH28890_74, c terminus: a fixed tail appended) is 4.41.
As to YRHQRLHTGERPYECTVCKKRFTR, the protein stability index (parent: IOH29221_62, c terminus: a fixed tail appended) is 2.36.
Turning to LIKFQVGLKKLNLHEEEHVLLMAI, the protein stability index (parent: IOH39811_53, c terminus: a fixed tail appended) was determined as 2.28.
FDGPEAWGVCEPQREEVEERMWAA: the protein stability index (parent: IOH29391_108, c terminus: a fixed tail appended) worked out at 2.7.
Regarding RLRGLLRVLRGRPGAGSRRRGRMA [FBXO33 WT], the protein stability index (parent: IOH28939_7, c terminus: a fixed tail appended) came to 2.16.
For the protein FHALVREIRRKEKEAVLAMEKKSK [RIT1 WT], the protein stability index (parent: IOH29584_30, c terminus: a fixed tail appended) came out at 1.93.
With FHELQMQVTASDSGDPPLSSNVSL, the protein stability index (parent: IOH36207_89, c terminus: a fixed tail appended) turned out to be 2.17.
As for SSIIHEIDSILGNKPYSKKDYRS, the protein stability index (parent: IOH29625_62, c terminus: native) amounted to 2.88.
Turning to HDDGYMICCDKCSVWQHIDCMGID [MLL5 WT], the protein stability index (parent: IOH39874_22, c terminus: a fixed tail appended) came out at 2.33.
SLPLQDELAFAEDLVLDEEGARAA: the protein stability index (parent: IOH39702_47, c terminus: a fixed tail appended) came to 3.08.
In the case of FGIEIEVTDINDNAPKFQAENLDV, under “parent: IOH36207_21, c terminus: a fixed tail appended”, the protein stability index was 2.77.
In the case of LGVAQRSLPLQDELAFAEDLVLDE, the protein stability index (parent: IOH39702_46, c terminus: a fixed tail appended) worked out at 2.84.
As for YINFRHLYKQRRRRYGQKKKKIH, the protein stability index (parent: IOH29075_58, c terminus: native) was found to be 2.11.
For the protein YVDVVFANRPDPNTPMEETVRAMT, the protein stability index (parent: IOH29625_26, c terminus: a fixed tail appended) amounted to 1.96.
Consider YSCPATNECEITKRRRKSCQACRF [ESRRG WT], for which the protein stability index (parent: IOH39815_24, c terminus: a fixed tail appended) came to 3.16.
As to VFGRGDNISDVSKFLEDDKWMEE [CROP WT], the protein stability index (parent: IOH29119_14, c terminus: native) is 1.95.
For QLTGHQRIHSGEEPHKCPECGKRF, under “parent: IOH29221_57, c terminus: a fixed tail appended”, the protein stability index stood at 4.05.
On to NLAGFILGCQGAQFVSSVPRCDLV, for which, where the note is “parent: IOH35782_4, c terminus: a fixed tail appended”, the protein stability index amounted to 2.97.
As for HKKKSPGEKPHRCPQCGKCFARKS, where the note is “parent: IOH29221_53, c terminus: a fixed tail appended”, the protein stability index is 3.46.
Consider VFQHHQYLSPLERKRLAREMQLSE [VENTX WT], for which the protein stability index (parent: IOH36691_19, c terminus: a fixed tail appended) was 2.52.
With RFSRQCVVDKDKRNQCRYCRLKKC [HNF4A WT], the protein stability index (parent: IOH35808_17, c terminus: a fixed tail appended) was 2.46.
On to TLHQRTHTEERPFKCNYCGKSFRQ, for which the protein stability index (parent: IOH29221_76, c terminus: a fixed tail appended) was found to be 2.24.
As to NDDSADYQHFLQDCVDGLFKEVKE, the protein stability index (parent: IOH28890_220, c terminus: a fixed tail appended) came to 2.66.
RIHSGEEPHKCPECGKRFLRSSDL: the protein stability index (parent: IOH29221_58, c terminus: a fixed tail appended) was 3.27.
With VTLELSQLSMLPHLADLVSYSIQK, the protein stability index (parent: IOH39811_37, c terminus: a fixed tail appended) is 2.42.
Take RDAIEALCRRLNTLNKCAVMKLEI: the protein stability index (parent: IOH28890_83, c terminus: a fixed tail appended) came to 2.68.
For the protein AEVVKIRDSFSNQNTETKDTKSR, the protein stability index (parent: IOH28890_253, c terminus: native) was found to be 2.4.
On to CTHCSKSFRQRAGLIMHQVTHFRG, for which the protein stability index (parent: IOH29221_83, c terminus: a fixed tail appended) was determined as 2.
Regarding EPHKCPECGKRFLRSSDLYRHQRL, the protein stability index (parent: IOH29221_59, c terminus: a fixed tail appended) amounted to 3.96.
Take PRCDLVDLGEGKICFCCEEFQPAK: the protein stability index (parent: IOH35782_7, c terminus: a fixed tail appended) was determined as 2.92.
Consider GSEAAVIPLDLGCTQVTQDGDIPN, for which the protein stability index (parent: IOH35782_37, c terminus: a fixed tail appended) was 5.39.
Turning to PILRLLPQGISPVSQHWATWALYN, the protein stability index (parent: IOH29391_115, c terminus: a fixed tail appended) was found to be 3.03.
Turning to EKALASILLQDHIRDLDVVVVSVA, the protein stability index (parent: IOH37933_8, c terminus: a fixed tail appended) came to 2.89.
For the protein YQSGGRLKRPVNVPFDIFTEEVKF, the protein stability index (parent: IOH29649_40, c terminus: a fixed tail appended) was 1.82.
KEMARKVIEHCSNFKEENMDTSR: the protein stability index (parent: IOH29391_126, c terminus: native) was 3.58.
Take IPPYSRASLKGYQWLKDKILSEEG: the protein stability index (parent: IOH29625_44, c terminus: a fixed tail appended) is 1.84.
As to QELEEEIKELYENFCKHNGSKNVF, the protein stability index (parent: IOH37933_70, c terminus: a fixed tail appended) turned out to be 2.68.
On to YSFYMLTCIDMDWKVLTWLRYTLW, for which, where the note is “parent: IOH29075_44, c terminus: a fixed tail appended”, the protein stability index was 2.31.
On to HFKKTKKMGGKDFSFRYQQELEEE, for which the protein stability index (parent: IOH37933_67, c terminus: a fixed tail appended) stood at 2.21.
For the protein CALNALTTTVCLVAAALRYLQIFA, for the setting “parent: IOH35782_16, c terminus: a fixed tail appended”, the protein stability index came to 2.77.
In the case of YVASHKIEKEEQEKKRKEEEERRR [ACBD3 WT], the protein stability index (parent: IOH39821_30, c terminus: a fixed tail appended) was 2.71.
VAAALRYLQIFATRRSCIDESQIS: the protein stability index (parent: IOH35782_18, c terminus: a fixed tail appended) was 1.98.
As for YQLGEEALLKFREDEGFVREEEDR, where the note is “parent: IOH29649_44, c terminus: a fixed tail appended”, the protein stability index was 4.53.
